Values joined by “and” are separate entries in the source; they are usually repeats but may differ in a detail not shown here. Identical values can stand only once.
Legend:
[1] = molecular target: the molecule itself; test: spatial intensity distribution analysis (SpIDA) of confocal images; basolateral membrane of intact cells induced with varying doxycycline, not treated with ligand (also vehicle, and after washout of antagonists with 60 min recovery); one-population model; QB against monomeric P-M-A206K eGFP
[2] = molecular target: the molecule itself; test: spatial intensity distribution analysis (SpIDA) of confocal images; basolateral membrane of intact cells treated with antagonist for 90 min at 37 °C (SB242084 50 nM, SB243213 50 nM or RS102221 100 nM); one-population model; QB against monomeric P-M-A206K eGFP

B1: human 5-HT2C receptor fused at its carboxyl terminus to A206K eGFP (5-HT2C-A206K eGFP) (receptor, UniProt P28335 33-458, looked up)
chain: IVTDIFNTSDGGRFKFPDGVQNWPALSIVIIIIMTIGGNILVIMAVSMEKKLHNATNYFLMSLAIADMLVGLLVMPLSLLAILYDYVWPLPRYLCPVWISLDVLFSTASIMHLCAISLDRYVAIRNPIEHSRFNSRTKAIMKIAIVWAISIGVSVPIPVIGLRDEEKVFVNNTTCVLNDPNFVLIGSFVAFFIPLTIMVITYCLTIYVLRRQALMLLHGHTEEPPGLSLDFLKCCKRNTAEEENSANPNQDQNARRRKKKERRPRGTMQAINNERKASKVLGIVFFVFLIMWCPFFITNILSVLCEKSCNQKLMEKLLNVFVWIGYVCSGINPLVYTLFNKIYRRAFSNYLRCNYKVEKKPPVRQIPRVAATALSGRELNVNIYRHTNEPVIEKASDNEPGIEMQVENLELPVNPSSVVSERISSV
notes: serotonin 5-hydroxytryptamine 2C (5-HT2C) receptor, human; construct in pEGFPN1, a gift of Dr. K. Herrick-Davis, subcloned into pcDNA5/FRT/TO; also called 5-HT2C-eGFP; serotonin 5-hydroxytryptamine 2C receptor; not shown: A206K eGFP, C-terminal, kept
- average quantal brightness relative to monomeric P-M-A206K eGFP [1]: 1.85 times
- stoichiometry N [1]: 2 and 4
- average quantal brightness relative to monomeric P-M-A206K eGFP, after SB242084 (50 nM, 90 min) [2]: 1.46 fold

— publication PMC4432300, “Regulation of Oligomeric Organization of the Serotonin 5-Hydroxytryptamine 2C (5-HT2C) Receptor Observed by Spatial Intensity Distribution Analysis*” (The Journal of Biological Chemistry, 2015)
